Assay results as given in patent publication US20240132578A1.

Columns and labels:
[1] = molecular target: HIV-1 Env of isolate 94UG103 (pseudovirus) (HIV-1); assay: cell-based or functional assay
[2] = molecular target: HIV-1 Env of isolate MGRM-AE-006 (pseudovirus) (HIV-1); assay: cell-based or functional assay
[3] = molecular target: HIV-1 Env of isolate 92WR021 (pseudovirus) (HIV-1); assay: cell-based or functional assay
[4] = molecular target: HIV-1 Env of isolate MGRM-AE-005 (pseudovirus) (HIV-1); assay: cell-based or functional assay
[5] = molecular target: HIV-1 Env of isolate 93WR029 (pseudovirus) (HIV-1); assay: cell-based or functional assay
[6] = molecular target: HIV-1 Env of isolate 92UG037 (pseudovirus) (HIV-1); assay: cell-based or functional assay
[7] = molecular target: HIV-1 Env of isolate 92UG031 (pseudovirus) (HIV-1); assay: cell-based or functional assay
[8] = molecular target: HIV-1 Env of isolate 92WR024 (pseudovirus) (HIV-1); assay: cell-based or functional assay
[9] = molecular target: HIV-1 Env of isolate MGRM-AE-004 (pseudovirus) (HIV-1); assay: cell-based or functional assay
[10] = molecular target: HIV-1 Env of isolate 92WR020 (pseudovirus) (HIV-1); assay: cell-based or functional assay
[11] = molecular target: HIV-1 Env of isolate 93UG077 (pseudovirus) (HIV-1); assay: cell-based or functional assay
[12] = molecular target: HIV-1 92RW020 Env (HIV-1); assay: cell-based or functional assay
[13] = molecular target: HIV-1 Env of isolate THR0.18 (HIV-1); assay: cell-based or functional assay
[14] = molecular target: HIV-1 Env of isolate MGRM-Chronic-B-011 (HIV-1); assay: cell-based or functional assay
[15] = molecular target: HIV-1 Env of isolate MGRM-Chronic-B-017 (HIV-1); assay: cell-based or functional assay
[16] = molecular target: HIV-1 Env of isolate SF162 (HIV-1) (UniProt P19550); assay: cell-based or functional assay
[17] = molecular target: HIV-1 Env of isolate 93IN905 (HIV-1); assay: cell-based or functional assay
[18] = molecular target: HIV-1 Env of isolate NL43 (HIV-1); assay: cell-based or functional assay
[19] = molecular target: HIV-1 Env of isolate MGRM-Chronic-B-010 (HIV-1); assay: cell-based or functional assay
[20] = molecular target: HIV-1 Env of isolate MGRM-Chronic-B-020 (HIV-1); assay: cell-based or functional assay
[21] = molecular target: HIV-1 Env of isolate JRCSF (HIV-1) (UniProt P20871); assay: cell-based or functional assay
[22] = molecular target: HIV-1 Env of isolate MGRM-Chronic-B-024 (HIV-1); assay: cell-based or functional assay
[23] = molecular target: HIV-1 Env of isolate 93MW959 (HIV-1); assay: cell-based or functional assay
[24] = molecular target: HIV-1 Env of isolate SC422661.8 (HIV-1); assay: cell-based or functional assay
[25] = molecular target: HIV-1 Env of isolate VLGCB3 (HIV-1); assay: cell-based or functional assay
[26] = molecular target: HIV-1 Env of isolate MGRM-Chronic-B-023 (HIV-1); assay: cell-based or functional assay
[27] = molecular target: HIV-1 Env of isolate TRO.11 (HIV-1); assay: cell-based or functional assay
[28] = molecular target: HIV-1 Env of isolate TRJ04551.58 (HIV-1); assay: cell-based or functional assay
[29] = molecular target: HIV-1 Env of isolate MGRM-Chronic-B-018 (HIV-1); assay: cell-based or functional assay
[30] = molecular target: HIV-1 Env of isolate MGRM-Chronic-B-012 (HIV-1); assay: cell-based or functional assay
[31] = molecular target: HIV-1 Env of isolate 97ZA012 (HIV-1); assay: cell-based or functional assay
[32] = molecular target: HIV-1 Env of isolate MGRM-F1-017 (HIV-1); assay: cell-based or functional assay
[33] = molecular target: HIV-1 Env of isolate QH0692.42 (HIV-1); assay: cell-based or functional assay
[34] = molecular target: HIV-1 Env of isolate 98IN022 (HIV-1); assay: cell-based or functional assay
[35] = molecular target: JR-FL gp120 ΔV1/ΔV2 (HIV-1 JR-FL); assay: ELISA, antigen-coated wells, mAb titrated; EC50 by nonlinear regression
[36] = molecular target: WT JR-FL gp120 (HIV-1 JR-FL); assay: as above

4970_K22 (PGT-144) (antibody), sequence (VH): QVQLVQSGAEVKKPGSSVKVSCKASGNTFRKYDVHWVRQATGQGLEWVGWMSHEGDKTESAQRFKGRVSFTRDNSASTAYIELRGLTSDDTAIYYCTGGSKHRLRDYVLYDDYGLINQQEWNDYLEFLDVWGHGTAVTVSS
4970_K22 (PGT-144) (antibody), sequence (VL): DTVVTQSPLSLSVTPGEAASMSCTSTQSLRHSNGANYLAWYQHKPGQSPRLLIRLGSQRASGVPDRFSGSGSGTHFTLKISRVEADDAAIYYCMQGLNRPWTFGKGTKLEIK
4995_P16 (PGT-145) (antibody), sequence (VH): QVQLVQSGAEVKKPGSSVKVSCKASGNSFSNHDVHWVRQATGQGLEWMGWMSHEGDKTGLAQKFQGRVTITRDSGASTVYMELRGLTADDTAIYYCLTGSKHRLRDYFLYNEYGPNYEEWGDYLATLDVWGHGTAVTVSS
4995_P16 (PGT-145) (antibody), sequence (VL): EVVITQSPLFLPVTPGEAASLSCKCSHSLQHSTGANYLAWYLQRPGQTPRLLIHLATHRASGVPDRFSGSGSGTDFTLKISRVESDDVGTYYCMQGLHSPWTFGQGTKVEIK
4995_E20 (PGT-142) (antibody), sequence (VH): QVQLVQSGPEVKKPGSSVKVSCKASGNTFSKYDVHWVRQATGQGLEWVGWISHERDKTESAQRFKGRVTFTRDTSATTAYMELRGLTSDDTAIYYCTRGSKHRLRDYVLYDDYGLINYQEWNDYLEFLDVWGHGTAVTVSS
4995_E20 (PGT-142) (antibody), sequence (VL): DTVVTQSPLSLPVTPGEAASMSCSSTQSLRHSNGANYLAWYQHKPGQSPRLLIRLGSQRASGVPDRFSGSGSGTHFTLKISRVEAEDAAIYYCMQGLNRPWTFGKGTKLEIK

4995_P16 (PGT-145) (antibody)
IC50 (µg/mL), single-round pseudovirus neutralization [1]: 0.331 µg/mL | IC50 (µg/mL), single-round pseudovirus neutralization [2]: > 50 µg/mL | IC50 (µg/mL), single-round pseudovirus neutralization [3]: 1.62 µg/mL | IC50 (µg/mL), single-round pseudovirus neutralization [4]: 0.967 µg/mL | IC50 (µg/mL), single-round pseudovirus neutralization [5]: > 50 µg/mL | IC50 (µg/mL), single-round pseudovirus neutralization [6]: 3.15 µg/mL | IC50 (µg/mL), single-round pseudovirus neutralization [7]: 3.22 µg/mL | IC50 (µg/mL), single-round pseudovirus neutralization [8]: 0.069 µg/mL | IC50 (µg/mL), single-round pseudovirus neutralization [9]: 0.006 µg/mL | IC50 (µg/mL), single-round pseudovirus neutralization [10]: 0.997 µg/mL | IC50 (µg/mL), single-round pseudovirus neutralization [11]: > 50 µg/mL

4970_K22 (PGT-144) (antibody)
IC50 (µg/mL), single-round pseudovirus neutralization [1]: > 50 µg/mL | IC50 (µg/mL), single-round pseudovirus neutralization [2]: > 50 µg/mL | IC50 (µg/mL), single-round pseudovirus neutralization [3]: > 50 µg/mL | IC50 (µg/mL), single-round pseudovirus neutralization [4]: > 50 µg/mL | IC50 (µg/mL), single-round pseudovirus neutralization [5]: 4.39 µg/mL | IC50 (µg/mL), single-round pseudovirus neutralization [6]: 8.24 µg/mL | IC50 (µg/mL), single-round pseudovirus neutralization [7]: 2.17 µg/mL | IC50 (µg/mL), single-round pseudovirus neutralization [8]: 16.3 µg/mL | IC50 (µg/mL), single-round pseudovirus neutralization [9]: 0.104 µg/mL | IC50 (µg/mL), single-round pseudovirus neutralization [10]: > 50 µg/mL | IC50 (µg/mL), single-round pseudovirus neutralization [11]: > 50 µg/mL | IC50, pseudovirus neutralization [12]: > 10 µg/mL

5345_I01 (PGT-137) (antibody)
IC50 (µg/mL), pseudovirus neutralization [13]: > 50 µg/mL | IC50 (µg/mL), pseudovirus neutralization [14]: > 50 µg/mL | IC50 (µg/mL), pseudovirus neutralization [1]: > 50 µg/mL | IC50 (µg/mL), pseudovirus neutralization [15]: > 50 µg/mL | IC50 (µg/mL), pseudovirus neutralization [3]: 3.52 µg/mL | IC50 (µg/mL), pseudovirus neutralization [16]: 3.41 µg/mL | IC50 (µg/mL), pseudovirus neutralization [5]: > 50 µg/mL | IC50 (µg/mL), pseudovirus neutralization [6]: > 50 µg/mL | IC50 (µg/mL), pseudovirus neutralization [17]: 0.042 µg/mL | IC50 (µg/mL), pseudovirus neutralization [18]: 17.4 µg/mL | IC50 (µg/mL), pseudovirus neutralization [7]: > 50 µg/mL | IC50 (µg/mL), pseudovirus neutralization [19]: > 50 µg/mL | IC50 (µg/mL), pseudovirus neutralization [8]: > 50 µg/mL | IC50 (µg/mL), pseudovirus neutralization [10]: 0.005 µg/mL | IC50 (µg/mL), pseudovirus neutralization [20]: 32.9 µg/mL | IC50 (µg/mL), pseudovirus neutralization [21]: > 50 µg/mL | IC50 (µg/mL), pseudovirus neutralization [22]: > 50 µg/mL | IC50 (µg/mL), pseudovirus neutralization [23]: > 50 µg/mL | IC50 (µg/mL), pseudovirus neutralization [24]: > 50 µg/mL | IC50 (µg/mL), pseudovirus neutralization [25]: 3.36 µg/mL | IC50 (µg/mL), pseudovirus neutralization [26]: > 50 µg/mL | IC50 (µg/mL), pseudovirus neutralization [11]: > 50 µg/mL | IC50 (µg/mL), pseudovirus neutralization [27]: 9.35 µg/mL | IC50 (µg/mL), pseudovirus neutralization [28]: > 50 µg/mL | IC50 (µg/mL), pseudovirus neutralization [29]: > 50 µg/mL | IC50 (µg/mL), pseudovirus neutralization [30]: > 50 µg/mL | IC50 (µg/mL), pseudovirus neutralization [31]: > 50 µg/mL | IC50 (µg/mL), pseudovirus neutralization [32]: > 50 µg/mL | IC50 (µg/mL), pseudovirus neutralization [33]: > 50 µg/mL | IC50 (µg/mL), pseudovirus neutralization [34]: 0.408 µg/mL | EC50 [35]: 0.2 µg/mL | EC50 [36]: 0.1 µg/mL

4995_E20 (PGT-142) (antibody)
IC50 (µg/mL), single-round pseudovirus neutralization [1]: > 50 µg/mL | IC50 (µg/mL), single-round pseudovirus neutralization [2]: > 50 µg/mL | IC50 (µg/mL), single-round pseudovirus neutralization [3]: > 50 µg/mL | IC50 (µg/mL), single-round pseudovirus neutralization [4]: > 50 µg/mL | IC50 (µg/mL), single-round pseudovirus neutralization [5]: 0.014 µg/mL | IC50 (µg/mL), single-round pseudovirus neutralization [6]: 0.557 µg/mL | IC50 (µg/mL), single-round pseudovirus neutralization [7]: 0.05 µg/mL | IC50 (µg/mL), single-round pseudovirus neutralization [8]: 0.069 µg/mL | IC50 (µg/mL), single-round pseudovirus neutralization [9]: 0.001 µg/mL | IC50 (µg/mL), single-round pseudovirus neutralization [10]: 31.5 µg/mL | IC50 (µg/mL), single-round pseudovirus neutralization [11]: > 50 µg/mL | IC50, pseudovirus neutralization [12]: > 10 µg/mL
